The text below walks through data of patent US20090280135A1.

For test [1], the target named is TCR of the MBP-69-89 specific short-term rat T-cell line (rat). Briefly: cell-based or functional assay.
Test [2] addresses rat BV8S2 TCR of the A1 T-cell hybridoma (C14/BW12-12A1), specific for Gp-BP-72-89 (rat). Briefly: flow cytometry on A1 hybridoma. In general terms: A flow cytometer gives signals particle by particle.
For test [3] the target is unchanged. Briefly: flow cytometry on A1 hybridoma, 10 µM complex, 17 h at 4 C, detection with OX6-PE.
Test [4] has the same target. Briefly: flow cytometry on A1 hybridoma with directly A488-labelled complex, 3 h at 4 C.
The target of test [5] is TCR of the cardiac myosin CM-2-specific cell line (rat). As to the kind of experiment: flow cytometry on CM-2 cell line (blocked with unconjugated OX6), 10 µM complex, detection with OX6-PE.

Bounds are passed on as bounds.

B1: β1α1/MBP-69-89 complex (rat RT1.B β1α1 construct loaded with MBP-69-89 peptide) (peptide-MHC)
chain: MGRDSPRDFVYQFKGLCYYTNGTQRIRDVIRYIYNQEEYLRYDSDVGEYRALTELGRPSAEYFNKQYLEQTRAELDTVCRHNYEGSEVRTSLRRLGGQDDIEADHVAAYGINIYQYYESRGQFTHEFDGDEEFYVDLDKKETIWRIPEFGQLTSFDPQGGLQNIAIIKHNLEILMKRSNSTQAVN
peptide: GSLPQKSQRSQDENPVVHF
As to B1, in test [1], the inhibition of proliferation ([3H]thymidine) of MBP-69-89 specific T-cell line after pre-treatment with 10 nM complex was more than 90%. The molecule also came in with a fold increase in MFI over background in test [2] of 10 fold. The molecule also had a mean fluorescence intensity (MFI) in test [3] of 800 Units.

B2: β1α1/MBP-55-69 complex (rat RT1.B β1α1 loaded with Gp-MBP-55-69 peptide) (peptide-MHC)
chain: MGRDSPRDFVYQFKGLCYYTNGTQRIRDVIRYIYNQEEYLRYDSDVGEYRALTELGRPSAEYFNKQYLEQTRAELDTVCRHNYEGSEVRTSLRRLGGQDDIEADHVAAYGINIYQYYESRGQFTHEFDGDEEFYVDLDKKETIWRIPEFGQLTSFDPQGGLQNIAIIKHNLEILMKRSNSTQAVN
peptide: SGKDSHHAARTTHYG
For B2, the inhibition of proliferation ([3H]thymidine) of MBP-69-89 specific T-cell line after pre-incubation with 20 µM complex in test [1] is 27%.

B3: A488-conjugated β1α1 loaded with MBP-69-89 (peptide-MHC)
chain: MGRDSPRDFVYQFKGLCYYTNGTQRIRDVIRYIYNQEEYLRYDSDVGEYRALTELGRPSAEYFNKQYLEQTRAELDTVCRHNYEGSEVRTSLRRLGGQDDIEADHVAAYGINIYQYYESRGQFTHEFDGDEEFYVDLDKKETIWRIPEFGQLTSFDPQGGLQNIAIIKHNLEILMKRSNSTQAVN
peptide: GSLPQKSQRSQDENPVVHF
modifications: Alexa-488 dye conjugated (molar ratio dye/protein=1), site not stated
As to B3, in test [4], the MCI was found to be 300 Units.

B4: β1α1/CM-2 complex (rat RT1.B β1α1 construct loaded with cardiac myosin peptide CM-2) (peptide-MHC)
chain: MGRDSPRDFVYQFKGLCYYTNGTQRIRDVIRYIYNQEEYLRYDSDVGEYRALTELGRPSAEYFNKQYLEQTRAELDTVCRHNYEGSEVRTSLRRLGGQDDIEADHVAAYGINIYQYYESRGQFTHEFDGDEEFYVDLDKKETIWRIPEFGQLTSFDPQGGLQNIAIIKHNLEILMKRSNSTQAVN
peptide: KLELQSALEEAEASLEH
In the case of B4, in test [5], the mean fluorescence intensity (MFI) worked out at 1800 Units.
